{
  "source": "patent US20090068158A1",
  "about": "“THYMIDYLATE KINASE MUTANTS AND USES THEREOF” (priority 2005, published 2009)",
  "key": {"[1]": {"assay": "Enzymatic activity of tmpk mutants for AZT-MP", "format": "biochemical, human"}, "[2]": {"conditions": "relative to wild-type tmpk; cited from earlier work"}},
  "data": [
    {"molecule": "F105Y+R200A: modified human tmpk combining mutations F105Y and R200A (protein, UniProt P23919 2-212, looked up, variant F105Y R200A) Thymidylate kinase: AARRGALIVLEGVDRAGKSTQSRKLVEALCAAGHRAELLRFPERSTEIGKLLSSYLQKKSDVEDHSVHLLFSANRWEQVPLIKEKLSQGVTLVVDRYAFSGVAYTGAKENFSLDWCKQPDVGLPKPDLVLFLQLQLADAAKRGAFGHERYENGAFQERALRCFHQLMKDTTLNWKMVDASKSIEAVHEDIRVLSEDAIATATEKPLGELWK", "values": [
      {"measurement": "enzymatic activity / catalytic conversion compared to wild-type tmpk (in words)", "setting": "[1]", "result": "superior enzymatic activity"},
      {"measurement": "enhanced activity for AZT-MP", "setting": "[2]", "result": "approximately 200 fold"}
    ]}
  ]
}
